Data reported in IntAct's records for PubMed 24525234.

B1: Rho guanine nucleotide exchange factor 2 (Mus musculus), Q60875 (parent)
chain: MSRIESLTRARIDRSKEQATKTREKEKMKEAKDARYTNGHLFTTISVSGMTMCYACNKSITAKEALICPTCNVTIHNRCKDTLANCTKVKQKQQKAALLRNNTALQSVSLRSKTTTRERPTSAIYPSDSFRQSLLGSRRGLSSLSLAKSVSTTNIAGHFNDESPLGLRQILSQSTDSLNMRNRTLSVESLIDEGVEVFYNELMSDFEMDEKDFEADSWSLAVDSSFLQQHKKEVMKKQDVIYELIQTELHHVRTLKIMTRLFRTGMLEELQMEPEVVQGLFPCVDELSDIHTRFLNQLLERRRQALCPGSTRNFVIHRLGDLLISQFSGSNAEQMRKTYSEFCSRHTKALKLYKELYARDKRFQQFIRKMTRSAVLKRHGVQECILLVTQRITKYPVLINRILQNSHGVEEEYQDLASALGLVKELLSNVDQDVHELEKEARLQEIYNRMDPRAQTPVPGKGPFGRDELLRRKLIHEGCLLWKTATGRFKDVLLLLMTDVLVFLQEKDQKYIFTSLDKPSVVSLQNLIVRDIANQAKGMFLISSGPPEMYEVHAASRDDRTTWIRVIQQSVRLCPSREDFPLIETEDKAYLRRIKTKLQQKNQALVELLQKNVELFAEMVHFQALKAGFVGMPPPALPRGLFRLESFESLRGERLLKDALREVEGLKDLLLGPCVDLPMTSREPALPLDSDSGSCPGVTANGEARTFNGSIELCRADSDSSQKDRNGNQLRSPQEEVLQPLINLYGLLHGLQAVVVQQERLMEALFPEGPERWEKLSRANSRDGEAGRAAVASVTPEKQATELALLQRQHTLLQEELRRCQRLGEERATEAGSLEARLRESEQARALLEREAEEIRRQLAALGQNEPLPAEAPWARRPLDPRRRSLPAGDALYLSFNPPQPSRGHDRLDLPVTVRSLHRPFDDREAQELGSPEDRLQDSSDPDTGSEEEVSSRLSPPHSPRDFTRMQDIPEETESRDGEPTASES

Variants of: B1
Conditions: with rhoa_human RHOA

effect of a mutation on the interaction | Variant
disrupting interaction | E243K
